Measurements published in US20180051081A1 (published 2018).
Positions count from the first letter of the chain named.

T1: mouse CD47 (mouse, UniProt Q61735 19-303)
T1 construct: whole, on cells; also called CD47 on mouse RBCs; CD47 on 4T1 cells
T1 sequence (looked up): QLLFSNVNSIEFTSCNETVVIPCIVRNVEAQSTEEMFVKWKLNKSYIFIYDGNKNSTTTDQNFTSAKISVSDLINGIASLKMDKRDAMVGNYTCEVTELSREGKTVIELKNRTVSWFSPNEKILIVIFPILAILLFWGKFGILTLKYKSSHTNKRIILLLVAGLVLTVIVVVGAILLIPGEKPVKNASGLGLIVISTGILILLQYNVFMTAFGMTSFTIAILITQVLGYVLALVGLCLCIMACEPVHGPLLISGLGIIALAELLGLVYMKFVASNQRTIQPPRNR

T2: pig CD47 (pig, UniProt Q9GKE8 19-303)
T2 construct: whole, on cells; also called CD47 on porcine RBCs
T2 sequence (looked up): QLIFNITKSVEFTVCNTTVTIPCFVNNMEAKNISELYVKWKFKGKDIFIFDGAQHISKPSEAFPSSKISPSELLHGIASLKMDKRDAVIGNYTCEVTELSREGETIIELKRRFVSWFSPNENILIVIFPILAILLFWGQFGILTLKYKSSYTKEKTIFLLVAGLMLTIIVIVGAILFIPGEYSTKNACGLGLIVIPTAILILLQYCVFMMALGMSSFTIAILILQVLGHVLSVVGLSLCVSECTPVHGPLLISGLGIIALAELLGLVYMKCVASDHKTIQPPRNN

T3: rat CD47 (rat, UniProt P97829 19-303)
T3 construct: whole, on cells; also called CD47 on rat RBCs
T3 sequence (looked up): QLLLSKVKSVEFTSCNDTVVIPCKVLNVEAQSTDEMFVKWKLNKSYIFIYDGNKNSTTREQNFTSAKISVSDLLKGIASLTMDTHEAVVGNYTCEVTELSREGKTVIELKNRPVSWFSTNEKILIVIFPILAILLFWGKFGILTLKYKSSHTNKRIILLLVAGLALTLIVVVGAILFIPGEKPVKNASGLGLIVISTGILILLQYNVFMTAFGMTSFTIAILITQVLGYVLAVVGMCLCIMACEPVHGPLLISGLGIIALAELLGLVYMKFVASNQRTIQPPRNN

T4: dog CD47 (dog, UniProt A0A8I3PM61 19-310)
T4 construct: also called CD47 on dog RBCs
T4 sequence: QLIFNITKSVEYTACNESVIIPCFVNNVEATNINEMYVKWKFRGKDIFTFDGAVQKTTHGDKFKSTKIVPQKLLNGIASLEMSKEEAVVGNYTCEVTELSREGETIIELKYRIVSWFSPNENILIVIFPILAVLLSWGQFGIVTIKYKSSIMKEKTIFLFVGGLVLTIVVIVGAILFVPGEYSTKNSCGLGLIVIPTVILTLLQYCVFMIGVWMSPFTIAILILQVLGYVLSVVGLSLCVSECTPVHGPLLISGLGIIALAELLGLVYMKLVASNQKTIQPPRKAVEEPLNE

B1: Clone 15 (pVxK7b-037-hum15-LC / pVxK7b-037-hum15-HC) (antibody, human IgG1, kappa, V domains shown)
VH: QVQLQESGPGLVKPSQTLSLTCTVSGYTFTNYYVFWVRQARGQRLEWIGDINPVNGDTNFNEKFKNRLTISKDTSKNQVVLTMTNMDPVDTATYYCARGGYTMDYWGQGTLVTVSS
VL: AIQLTQSPSSLSASVGDRVTITCRSSQSLVHSNGNTYLHWYQQKPGQAPRLLIYKVSYRFSGVPSRFSGSGSGTEFTLTISSLQPDDFATYYCSQNTHVPRTFGQGTKVEIKR
B2: chimeric antibody VxP037-01LC-Pro/VxP037-01HC-Pro (antibody, human IgG1, kappa, V domains shown)
VH: EVQLQQFGAELVKPGASMKLSCKASGYTFTNYYVFWVKQRPGQGLEWIGDINPVNGDTNFNEKFKNKATLTVDKSSTTTYLQLSSLTSEDSAVYYCTRGGYTMDYWGQGTLVTVSS
VL: DVVMTQTPLSLSVSLGDQASISCRSSQSLVHSNGNTYLHWYLQKPGQSPKLLIYKVSYRFSGVPDRFSGSGSGTDFTLKISRVEAEDLGVYFCSQNTHVPRTFGQGTKVEIKR
notes: also called Chimera; VxP037-01LC/VxP037-01HC
B3: Clone 1 (pVxK7b-037-hum01-LC / pVxK7b-037-hum01-HC) (antibody, human IgG1, kappa)
light: DIVMTQTPLSLPVTPGEPASISCRSSQSLVHSNGNTYLHWYQQKPGKAPKLLIYKVSYRFSGVPDRFSGSGSGTDFTLKISRVEAEDVGVYYCSQNTHVPRTFGQGTKVEIKRTVAAPSVFIFPPSDEQLKSGTASVVCLLNNFYPREAKVQWKVDNALQSGNSQESVTEQDSKDSTYSLSSTLTLSKADYEKHKVYACEVTHQGLSSPVTKSFNRGEC
heavy: not shown
notes: also called Cl 1
B4: Clone 19 (pVxK7b-037-hum19-LC / pVxK7b-037-hum19-HC) (antibody, human IgG1, kappa)
light: B3 light with I2V, T7S, P15L, E17Q
heavy: not shown
B5: Clone 20 (pVxK7b-037-hum20-LC / pVxK7b-037-hum20-HC) (antibody, human IgG1, kappa)
light: B3 light with Q42L, K47Q, A48S, K50Q
heavy: not shown
B6: Clone 3 (pVxK7b-037-hum03-LC / pVxK7b-037-hum03-HC) (antibody, human IgG1, kappa)
light: B3 light with I2V, T7S, P15L, E17Q
heavy: not shown
B7: Clone 14 (pVxK7b-037-hum14-LC / pVxK7b-037-hum14-HC) (antibody, human IgG1, kappa)
light: B3 light with I2V, T7S, P15L, E17Q
heavy: not shown
B8: Clone 13 (pVxK7b-037-hum13-LC / pVxK7b-037-hum13-HC) (antibody, human IgG1, kappa)
light: B3 light
heavy: not shown
notes: also called Cl 13

Target: T1, mouse CD47
Test: FACS, mouse RBCs, supernatant 10 ng/ml
Experimental: (§1) RBCs are incubated for 60 minutes on ice with tissue culture supernatants containing the secreted humanized antibodies at a concentration of 10 ng/ml in a solution of phosphate buffered saline, pH 7.2, 2.5 mM EDTA (PBS+E), or with various concentrations of purified antibodies. Cells are then washed with cold PBS+E, and incubated for an additional hour on ice with FITC labeled donkey anti-human antibody (Jackson Immuno Research Labs, West Grove, Pa.; Catalogue #709-096-149) in PBS+E. Cells are then washed with PBS+E, and antibody binding is analyzed using a BD FACSAria Cell Sorter (Becton Dickinson) or a C6 Accuri Flow Cytometer (Becton Dickinson). Antibody binding is quantitated by comparison of mean fluorescence values relative to that of chimeric antibody >VxP037-01LC (SEQ ID NO:7))/>VxP037-01HC (SEQ ID NO:57). The mean fluorescence value for each antibody is divided by the mean fluorescence value for the chimeric antibody.

| Binder | mean fluorescence relative to chimera |
| --- | --- |
| B1 | 1.3 |
| B2 | 1 |
| B3 | 1.7 |
| B4 | 1 |
| B5 | 1.5 |
| B6 | 0.9 |
| B7 | 1.5 |
| B8 | 1.3 |

Target: T2, pig CD47
Test: FACS, pig RBCs, supernatant 10 ng/ml
Experimental: as §1

| Binder | mean fluorescence relative to chimera |
| --- | --- |
| B1 | 1.2 |
| B2 | 1 |
| B3 | 1.3 |
| B4 | 1.3 |
| B5 | 1.7 |
| B6 | 0.9 |
| B7 | 1.4 |
| B8 | 1.4 |

Target: T3, rat CD47
Test: FACS, rat RBCs, supernatant 10 ng/ml
Experimental: as §1

| Binder | mean fluorescence relative to chimera |
| --- | --- |
| B1 | 2.4 |
| B2 | 1 |
| B3 | 2.7 |
| B4 | 2.6 |
| B5 | 1.9 |
| B6 | 1.7 |
| B7 | 3.2 |
| B8 | 3.1 |

Target: T4, dog CD47
Test: FACS, dog RBCs, supernatant 10 ng/ml
Experimental: as §1

| Binder | mean fluorescence relative to chimera |
| --- | --- |
| B1 | 1.1 |
| B2 | 1 |
| B3 | 1 |
| B4 | 1.2 |
| B5 | 1.1 |
| B6 | 0.9 |
| B7 | 1.3 |
| B8 | 1 |

Target: T5, human CD47 (human, UniProt Q08722 19-323)
T5 construct: whole, on cells; also called CD47 on human RBCs; CD47 on OV10 cells
T5 sequence (Q08722 19-323): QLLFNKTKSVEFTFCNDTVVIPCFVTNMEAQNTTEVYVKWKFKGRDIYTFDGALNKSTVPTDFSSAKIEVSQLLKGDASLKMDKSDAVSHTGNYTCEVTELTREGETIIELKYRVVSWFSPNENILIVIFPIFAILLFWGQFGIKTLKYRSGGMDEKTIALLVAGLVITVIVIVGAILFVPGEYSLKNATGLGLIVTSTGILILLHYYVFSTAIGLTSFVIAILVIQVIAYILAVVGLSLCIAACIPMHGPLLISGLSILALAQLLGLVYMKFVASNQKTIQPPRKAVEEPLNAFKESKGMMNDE
Test: FACS, human RBCs, supernatant 10 ng/ml
Experimental: as §1

| Binder | mean fluorescence relative to chimera |
| --- | --- |
| B1 | 1 |
| B2 | 1 |
| B3 | 1.1 |
| B4 | 0.7 |
| B5 | 1.3 |
| B6 | 0.7 |
| B7 | 1.1 |
| B8 | 1.2 |
